Assay results: the supplement of paper PMC9170038

Tested on: MS2 coat protein
Assay: apparent KD of MS2 coat protein; designed switch direction (-1 OFF switch, 1 ON switch): -1; higher = weaker reporter binding
Summary of the method: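 For each design, the apparent KD is the median over clusters of curves fitted to normalised cluster fluorescence. Clusters held RNA switches with common flanks, transcribed on Illumina chips by stalled E. coli RNA polymerase. These were titrated with SNAP-549-labelled MS2 coat protein, doubling from 0.7 or 1.5 nM to 3 µM, without input, with 200 uM small-molecule ligand, or with an oligonucleotide input.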

[1] = Eterna round: R95, input ligand: microRNA oligo, concentration not stated
[2] = Eterna round: R95, input ligand: FMN 200 uM
[3] = Eterna round: R95, input ligand: none
[4] = input ligand: microRNA oligo, concentration not stated

AACAGAUGAGGAUAUACACGAGGAGUGAUACCGUAUGCCAGACAUGAGGAUCACCCAUGUAGAAGGCAUAAUAG [Celeated] (Eterna round: R97, puzzle: Exclusion 2)
apparent KD of MS2 coat protein (input ligand: FMN 200 uM): 0.0189 µM
apparent KD of MS2 coat protein (input ligand: none): 0.0124 µM

UGACAGGAGUAGGAUAUGCCCACCGUCCGACUGGCAGAAGGACUCACAUGAGGAUCACCCAUGUAGUUAUGUAC [Eternabot (L2) Solution 96] (Eterna round: R97, puzzle: Exclusion 6)
apparent KD of MS2 coat protein (input ligand: FMN 200 uM): 0.0201 µM
apparent KD of MS2 coat protein (input ligand: none): 0.016 µM

GAGUGACAUGAGGAUCACCCAUGUGAGGAUAUCGGACGGACCAAAUUAACAACAACCGCGAGAAGGCACAUCGG [Exclusion 1 V20] (puzzle: Exclusion 1)
apparent KD of MS2 coat protein [1]: 0.112 µM

AUAUAGUGAGGAUAUACAUGAGGAUCACCCAUGUGGUAGUAGAUACAGUAGAGAUAGAGUAGAAGGCACGAUGA [EX3 #26] (Eterna round: R97, puzzle: Exclusion 3)
apparent KD of MS2 coat protein (input ligand: FMN 200 uM): 0.197 µM
apparent KD of MS2 coat protein (input ligand: none): 0.068 µM

ACUGCCACAGGAUAUACGAAACUCUUGGGUUCCGCCGUGUGACAUGAGGAUCACCCAUGUAGAAGGGUGGCUUA [Atbiinza] (puzzle: Exclusion 2)
apparent KD of MS2 coat protein [1]: 0.398 µM

UAUUAACAAGCAAGAUCCCACAUGAGGAUCACCCAUGUGCUCGUCUUGUAAGGUACUGUGACGAAAGUCACGGUACC [Sensor 3, v1 - 84] (puzzle: Sensor v3, turn-off variant 1)
apparent KD of MS2 coat protein [2]: 0.0139 µM
apparent KD of MS2 coat protein [1]: 0.041 µM
apparent KD of MS2 coat protein [3]: 0.0134 µM

CACUUACAUGAGGAUCACCCAUGUGAGGAUAUCGUGACCAGACGAGAAGUCUAUGUCACGAGAAGGUACAUGGG [Exclusion 1 (Mod 1.1 solution 97 by Eternabot)] (Eterna round: R97, puzzle: Exclusion 1)
apparent KD of MS2 coat protein (input ligand: FMN 200 uM): 0.0933 µM
apparent KD of MS2 coat protein (input ligand: none): 0.574 µM

GUUUGCGCAGGAUAUACAUGAGGAUCACCCAUGUGAGAGAAAGAAGUGAGGAAGAAAAGUAGAAGGGCGUGACG [Mat - Exclusion 3 - Mod of Salish D72] (puzzle: Exclusion 3)
apparent KD of MS2 coat protein [2]: 0.301 µM
apparent KD of MS2 coat protein [1]: 0.0584 µM
apparent KD of MS2 coat protein [3]: 0.039 µM

AGUCGGUCAGGAUAUGCAAUCGUGGACAUGAGGAUCACCCAUGUAACGUGGGCCUGGUUUGUAGAAGGGACGUGCA [EX5 #88] (Eterna round: R97, puzzle: Exclusion 5)
apparent KD of MS2 coat protein (input ligand: FMN 200 uM): 0.0632 µM
apparent KD of MS2 coat protein (input ligand: none): 0.0552 µM

AUGAGCAGACGGAGAUCCAACAUGAGGAUCACCCAUGUCUCAAAAGCUUUUUGCUCAUCUUAUUGUACCUUGGUGCU [Mat - Sensor v3 - turn-off var 1 - JL Mod - D16] (puzzle: Sensor v3, turn-off variant 1)
apparent KD of MS2 coat protein [2]: 0.167 µM
apparent KD of MS2 coat protein [1]: 0.0132 µM
apparent KD of MS2 coat protein [3]: 0.194 µM

CACAAGCUUGGGCUCGCUGACAUGAGGAUCACCCAUGUCGGAUCAGACACCAAACGUCUCGAUCACGACGGAUCCAG [Eternabot (Original) Solution 7] (Eterna round: R97, puzzle: Sensor, turn-off variant 1)
apparent KD of MS2 coat protein (input ligand: FMN 200 uM): 0.04 µM
apparent KD of MS2 coat protein (input ligand: none): 0.0333 µM

UCGGCGCGAGGAUAUGCGGUUUGUGCUUUGGGCCCUGGCGUACAUGAGGAUCACCCAUGUAGAAGGCGCGCCGC [Apr-15 SS2-47] (puzzle: Exclusion 2)
apparent KD of MS2 coat protein [1]: 0.0159 µM

CUGCUGGAGCUUUGCUUUGGUCGUACAUGAGGAUCACCCAUGUAGGAUAUGGUAGGCUUUGCUUGCUAGAAGGAUAGAGUGGUC [salish99_ExNG3_r04_609] (Eterna round: R96, puzzle: Exclusion NG 3)
apparent KD of MS2 coat protein (input ligand: FMN 200 uM): 0.197 µM
apparent KD of MS2 coat protein [4]: 0.0775 µM
apparent KD of MS2 coat protein (input ligand: none): 0.0888 µM

ACAUGUCAUUGAGGAUAUUGCACACAUGAGGAUCACCCAUGUAUACGGAUGCUCUUACGUGAGUUCGAGAAGGCGAUGUACAUU [Ex NG2 #89] (Eterna round: R96, puzzle: Exclusion NG 2)
apparent KD of MS2 coat protein (input ligand: FMN 200 uM): 0.29 µM
apparent KD of MS2 coat protein [4]: 0.121 µM
apparent KD of MS2 coat protein (input ligand: none): 0.16 µM
